Laboratory results from PMC3564486 (Developmental cell, 2011).
Numbering of substitutions follows the chain as printed.

B1: human Mesd with an internal Flag tag (co-expressed with LRP6ECD) (natural protein, UniProt Q14696-1 34-234, looked up)
chain: AEGSPGTPDESTPPPRKKKKDIRDYNDADMARLLEQWEKDDDIEEGDLPEHKRPSAPVDFSKIDPSKPESILKMTKKGKTLMMFVTVSGSPTEKETEEITSLWQGSLFNANYDVQRFIVGSDRAIFMLRDGSYAWEIKDFLVGQDRCADVTLEGQVYPGKGGGSKEKNKTKQDKGKKKKEGDLKSRSSKEENRAGNKREDL
B2: Dickkopf 1 (Dkk1) (ligand, human, UniProt O94907 32-266, looked up)
chain: TLNSVLNSNAIKNLPPPLGGAAGHPGSAVSAAPGILYPGGNKYQTIDNYQPYPCAEDEECGTDEYCASPTRGGDAGVQICLACRKRRKRCMRHAMCCPGNYCKNGICVSSDQNHFRGEIEETITESFGNDHSTLDGYSRRTTLSSKMYHTKGQEGSVCLRSSDCASGLCCARHFWSKICKPVLKEGQVCTKHRRKGSHGLEIFQRCYCGEGLSCRIQKDHHQASNSSRLHTCQRH

Experiments:
[1] = target: T1, LRP6 ectodomain (LRP6ECD) (human, UniProt O75581 20-1361); experiment: SEC-MALS
T1 sequence (looked up): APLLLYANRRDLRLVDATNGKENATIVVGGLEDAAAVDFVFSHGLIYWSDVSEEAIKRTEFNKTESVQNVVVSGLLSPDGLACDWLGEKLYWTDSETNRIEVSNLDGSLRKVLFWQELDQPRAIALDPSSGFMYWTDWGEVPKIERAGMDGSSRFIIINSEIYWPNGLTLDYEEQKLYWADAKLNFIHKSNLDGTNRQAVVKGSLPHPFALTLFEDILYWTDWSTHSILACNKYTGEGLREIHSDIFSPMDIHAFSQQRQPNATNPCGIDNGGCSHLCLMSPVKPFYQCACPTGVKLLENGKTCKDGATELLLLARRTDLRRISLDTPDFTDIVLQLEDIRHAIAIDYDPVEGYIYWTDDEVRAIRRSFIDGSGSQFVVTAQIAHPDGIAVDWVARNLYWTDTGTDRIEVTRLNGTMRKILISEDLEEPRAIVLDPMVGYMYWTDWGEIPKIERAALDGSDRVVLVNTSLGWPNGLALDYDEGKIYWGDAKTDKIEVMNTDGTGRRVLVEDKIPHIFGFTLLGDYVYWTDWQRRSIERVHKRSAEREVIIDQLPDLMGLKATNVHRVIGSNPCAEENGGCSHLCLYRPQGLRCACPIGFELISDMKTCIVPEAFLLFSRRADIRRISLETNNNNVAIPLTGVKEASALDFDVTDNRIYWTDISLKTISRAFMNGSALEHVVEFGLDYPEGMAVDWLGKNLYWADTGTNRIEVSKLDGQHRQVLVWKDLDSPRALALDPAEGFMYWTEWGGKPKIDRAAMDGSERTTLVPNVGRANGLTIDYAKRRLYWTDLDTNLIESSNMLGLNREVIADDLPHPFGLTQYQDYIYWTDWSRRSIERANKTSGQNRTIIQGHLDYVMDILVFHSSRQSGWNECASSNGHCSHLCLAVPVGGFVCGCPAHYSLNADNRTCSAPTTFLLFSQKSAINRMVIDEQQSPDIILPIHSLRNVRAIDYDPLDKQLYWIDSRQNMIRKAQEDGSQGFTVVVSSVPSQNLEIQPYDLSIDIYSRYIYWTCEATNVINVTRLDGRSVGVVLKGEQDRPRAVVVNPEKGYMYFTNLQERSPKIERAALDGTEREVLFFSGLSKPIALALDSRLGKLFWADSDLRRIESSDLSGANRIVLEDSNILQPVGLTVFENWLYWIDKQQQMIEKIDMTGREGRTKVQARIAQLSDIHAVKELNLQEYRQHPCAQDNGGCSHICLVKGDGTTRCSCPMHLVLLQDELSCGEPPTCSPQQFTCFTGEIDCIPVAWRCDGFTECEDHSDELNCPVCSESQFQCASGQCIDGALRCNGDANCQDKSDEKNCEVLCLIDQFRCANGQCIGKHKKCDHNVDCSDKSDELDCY

[2] = target: T2, LRP6_(P3E3P4E4), wild type (human, UniProt O75581 629-1244); experiment: SPR
T2 sequence (looked up): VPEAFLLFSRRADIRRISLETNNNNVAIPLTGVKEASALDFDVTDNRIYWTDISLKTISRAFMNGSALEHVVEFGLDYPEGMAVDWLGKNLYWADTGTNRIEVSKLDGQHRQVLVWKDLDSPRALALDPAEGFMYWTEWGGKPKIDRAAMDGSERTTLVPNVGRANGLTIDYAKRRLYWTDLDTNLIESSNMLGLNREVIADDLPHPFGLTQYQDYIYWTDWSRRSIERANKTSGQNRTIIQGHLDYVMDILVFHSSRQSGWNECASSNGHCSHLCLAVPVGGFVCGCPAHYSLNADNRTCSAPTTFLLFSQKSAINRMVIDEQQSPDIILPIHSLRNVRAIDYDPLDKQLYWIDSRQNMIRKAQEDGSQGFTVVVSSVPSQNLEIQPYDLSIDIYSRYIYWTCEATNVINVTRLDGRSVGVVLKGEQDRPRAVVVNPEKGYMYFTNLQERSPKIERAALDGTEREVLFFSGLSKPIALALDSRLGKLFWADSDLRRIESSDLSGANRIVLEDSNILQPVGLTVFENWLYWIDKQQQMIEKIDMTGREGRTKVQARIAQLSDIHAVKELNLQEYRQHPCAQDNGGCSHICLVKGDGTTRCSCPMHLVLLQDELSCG

LRP6_(P3E3P4E4) N813A = target: T3, LRP6_(P3E3P4E4) N813A (human, UniProt O75581 629-1244, N813A); experiment: SPR
T3 sequence (looked up): T2 sequence (looked up) with N185A

LRP6_(P3E3P4E4) Y706A = target: T4, LRP6_(P3E3P4E4) Y706A (human, UniProt O75581 629-1244, Y706A); experiment: SPR
T4 sequence (looked up): T2 sequence (looked up) with Y78A

LRP6_(P3E3P4E4) E708A = target: T5, LRP6_(P3E3P4E4) E708A (human, UniProt O75581 629-1244, E708A); experiment: SPR
T5 sequence (looked up): T2 sequence (looked up) with E80A

LRP6_(P3E3P4E4) W767A = target: T6, LRP6_(P3E3P4E4) W767A (human, UniProt O75581 629-1244, W767A); experiment: SPR
T6 sequence (looked up): T2 sequence (looked up) with W139A

| Binder | stoichiometry N [1] | Kd [2] | binding result (LRP6_(P3E3P4E4) N813A) | binding result (LRP6_(P3E3P4E4) Y706A) | binding result (LRP6_(P3E3P4E4) E708A) | binding result (LRP6_(P3E3P4E4) W767A) |
| --- | --- | --- | --- | --- | --- | --- |
| B1 | 1 | – | – | – | – | – |
| B2 | – | 58 nM | binds | binds | binds | binds |
